Target: FUD, a 56-residue recombinant polypeptide based on the Functional Upstream Domain of the F1 adhesin of Streptococcus pyogenes (Streptococcus pyogenes)
Assay: ELISA; competitive enzyme-linked assay: high binding plates coated overnight at 4°C with 10 µg/mL FN; 0.3 nM biotinylated FUD with increasing concentrations of soluble 70K proteins; binding relative to no competitor

Substance | fold decrease in ability to compete, against wildtype 70K
70K I480/572A (Ile-to-Ala mutations in the IGD motifs of 7FNI and 9FNI) (domain or fragment) | 2 fold
70K I150/242A (Ile-to-Ala mutations in the IGD motifs of 3FNI and 5FNI) (domain or fragment) | 2 fold

— PMC3280255
